Data taken from paper PMC5238724.

Target: Drosophila protamine B (Prot B), untagged recombinant (Drosophila)
Experiment: non-reducing SDS-PAGE of disulfide-linked oligomers

## Drosophila protamine B (Prot B), untagged recombinant (natural protein)
  stoichiometry N: 2
